Substitutions are numbered along the chain they refer to. Numbers in names are those of the source.

The record followed here is PMC6355839, “Functional role of PGAM5 multimeric assemblies and their polymerization into filaments” (Nature Communications, 2019).

Sequences and labels used below:
B1: ∆48 PGAM5 (residues 49–289), wild type (domain or fragment, UniProt Q96HS1 49-289, looked up)
chain: GGARPGPGVWDPNWDRREPLSLINVRKRNVESGEEELASKLDHYKAKATRHIFLIRHSQYHVDGSLEKDRTLTPLGREQAELTGLRLASLGLKFNKIVHSSMTRAIETTDIISRHLPGVCKVSTDLLREGAPIEPDPPVSHWKPEAVQYYEDGARIEAAFRNYIHRADARQEEDSYEIFICHANVIRYIVCRALQFPPEGWLRLSLNNGSITHLVIRPNGRVALRTLGDTGFMPPDKITRS
notes: PGAM5 long isoform (PGAM5L, residues 1-289), residues 49-289: linker domain with the multimerization motif (58-63) and the PGAM phosphatase domain; His6 is followed by a TEV site (ENLYFQS); the methods describe no TEV cleavage; also called Δ48 PGAM5; ∆48 WT; source: E. coli BL21 DE3 pLysS, purified (Ni-NTA, SEC on Superose 6)
B2: ∆48 PGAM5 R269E (domain or fragment, UniProt Q96HS1 49-289, looked up)
chain: B1 chain with R221E
notes: PGAM5 long isoform (PGAM5L), residues 49-289, R269E; source: E. coli BL21 DE3 pLysS, purified (Ni-NTA, SEC)
B3: ∆48 PGAM5 H105A (domain or fragment, UniProt Q96HS1 49-289, looked up)
chain: B1 chain with H57A
notes: PGAM5 long isoform (PGAM5L), residues 49-289, H105A; also called ∆48 H105A; source: E. coli BL21 DE3 pLysS, purified (Ni-NTA, SEC)
B4: ∆48 PGAM5 R288E (domain or fragment, UniProt Q96HS1 49-289, looked up)
chain: B1 chain with R240E
notes: PGAM5 long isoform (PGAM5L), residues 49-289, R288E; also called ∆48 R288E; source: E. coli BL21 DE3 pLysS, purified (Ni-NTA, SEC)
B5: ∆48 PGAM5 A4 (WDxxWD of the MM replaced by AAxxAA) (domain or fragment, UniProt Q96HS1 49-289, looked up)
chain: B1 chain with W10A, D11A, W14A, D15A
notes: PGAM5 long isoform (PGAM5L), residues 49-289, W58A/D59A/W62A/D63A; also called ∆48 A4; A4 mutant; source: E. coli BL21 DE3 pLysS, purified (Ni-NTA, SEC)
B6: ∆48 PGAM5 R65A (domain or fragment, UniProt Q96HS1 49-289, looked up)
chain: B1 chain with R17A
notes: PGAM5 long isoform (PGAM5L), residues 49-289, R65A; also called ∆48 R65A; source: E. coli BL21 DE3 pLysS, purified (Ni-NTA, SEC)
B7: ∆48 PGAM5 Y198E (domain or fragment, UniProt Q96HS1 49-289, looked up)
chain: B1 chain with Y150E
notes: PGAM5 long isoform (PGAM5L), residues 49-289, Y198E; also called ∆48 Y198E; source: E. coli BL21 DE3 pLysS, purified (Ni-NTA, SEC)
B8: PGAM5 MM peptide (linker domain residues 54–67, multimerization motif) (peptide)
peptide: GPGVWDPNWDRREP
notes: PGAM5 linker domain residues 54-67, holding the multimerization motif WDxxWD (58-63); source: synthetic peptide, bought: Elim Biopharma
B9: ∆90 PGAM5 (residues 91–289), isolated phosphatase domain, wild type (domain or fragment, UniProt Q96HS1 91-289, looked up)
chain: HYKAKATRHIFLIRHSQYHVDGSLEKDRTLTPLGREQAELTGLRLASLGLKFNKIVHSSMTRAIETTDIISRHLPGVCKVSTDLLREGAPIEPDPPVSHWKPEAVQYYEDGARIEAAFRNYIHRADARQEEDSYEIFICHANVIRYIVCRALQFPPEGWLRLSLNNGSITHLVIRPNGRVALRTLGDTGFMPPDKITRS
notes: PGAM5 long isoform (PGAM5L), residues 91-289, phosphatase domain; His6 followed by a TEV site (ENLYFQS); cleavage not described; also called Δ90 PGAM5; source: E. coli BL21 DE3 pLysS, purified (Ni-NTA, SEC on Superose 6)
B10: ∆90 PGAM5 H105A (residues 91–289), catalytically dead phosphatase domain (domain or fragment, UniProt Q96HS1 91-289, looked up)
chain: B9 chain with H15A
notes: PGAM5 long isoform (PGAM5L), residues 91-289, phosphatase domain, H105A; His6 followed by a TEV site (ENLYFQS); cleavage not described; also called Δ90 PGAM5 H105A; ∆90 H105A PGAM5; source: E. coli BL21 DE3 pLysS, purified (Ni-NTA, SEC)

Data set [1] concerns the molecule itself. Nature of the data set: SEC; Superose 6 10/300 GL Increase; 20 mM Tris-Cl pH 8.0, 150 mM NaCl, 0.5 mM TCEP; salt titration up to 1 M NaCl.
Data set [2] deals with the molecule itself. Nature of the data set: cryo-EM structure; 2D class averages only (top view, 4.5 Å); 0.10 mg/mL in 20 mM Tris-Cl pH 8.0, 600 mM NaCl, 0.5 mM TCEP.
Data set [3] concerns the molecule itself. Nature of the data set: cell-based or functional assay.
Data set [4] deals with the molecule itself. Nature of the data set: negative-stain electron microscopy; samples from SEC peaks (~0.01–0.1 mg/mL), 0.75% uranyl formate; 150 mM NaCl buffer; filaments decompose into rings at 300 and 750 mM NaCl.
The target in data set [5] is B10. Nature of the data set: crystal structure; ∆90 H105A PGAM5 7.5 mg/mL with ASK1 peptide:MM peptide:protein 3:3:1; 100 mM Tris-Cl pH 7.0, 200 mM MgCl2, 10% PEG 8000; 2.6 Å; twelve molecules in the asymmetric unit. As to conditions: both partners purified.
Data set [6] concerns the molecule itself. The data set is described as above.
Data set [7] concerns the molecule itself. Nature of the data set: crystal structure; ∆90 H105A PGAM5 5 mg/mL with ASK1 peptide 5:1, without MM peptide; 100 mM HEPES pH 7.5, 200 mM MgCl2, 30% PEG 400; 1.7 Å; two molecules in the asymmetric unit.

Regarding B1, the stoichiometry N – broadly, a count of units in the complex or per binding partner – is 2 in data set [1] and 12 in data set [2]. Moreover, the “Kcat/Km of dephosphorylation of the ASK1 phosphopeptide (20 nM enzyme)” value (from here on “Kcat/Km”) in data set [3] was determined as 19800 M⁻¹ s⁻¹.
Turning to B2, in data set [4], the binding result was “binds”.
Turning to B3, the binding result in data set [1] was “binds”.
Regarding B4, the “stoichiometry N” value in data set [4] worked out at 12. The “Kcat/Km” value in data set [3] stood at 13700 M⁻¹ s⁻¹.
In the case of B5, the “stoichiometry N” value in data set [1] came to 2.
Turning to B6, in data set [1], the “stoichiometry N” value worked out at 2. Moreover, the “Kcat/Km” value in data set [3] turned out to be 3170 M⁻¹ s⁻¹.
For B7, in that order: 2 and 10000 M⁻¹ s⁻¹.
Consider B8, for which the binding result in data set [5] was “binds”.
Regarding B9, the “stoichiometry N” value in data set [1] amounted to 2.
For the molecule B10, the “stoichiometry N” value came to 12 in data set [6] and 2 in data set [7].
